Experimental data taken from the DeepSol protein solubility set.

Assay: soluble on expression in E. coli; label from the status in PepcDB or PDB records

Sequence | soluble on expression in E. coli
MGSDKIHHHHHHMRYVKLHSEYFPEFFNRLKEVGRVYGPVRHNSTYRFEEVNSIDELSLDYTRTILPPKKFFIRPRDAMFKIQKNEVTEVDGDGKFVLFGVHSCDIHGIKILDKVYLSNPPDPYYERRRKNAFIVGISCMPDEYCFCKSLGTDFAMDGFDIFLHELPDGWLVRVGSVKGHEFVWENQDIFDDVTEEDLRNFKEFEEKRAKAFKKSLNKEGLADILDLAFTSKVWKKYAEKCLGCGNCTIVCPTCRCYEVCDTWVRAYEALRMRRYDSCFMPTHGLVAGGHNFRPTRLDRFRHRYYCKNYFDPEAGFNCVGCGRCDEFCPARIEHVKVLDEVREGLI | not soluble
MAHHHHHHMSHPKMKLVRRARKSIRERRMKACLKDLSSNLEKVEMRVFRQQKQKRQQQQRKGAGNHITVPPDVLRGVMNPELYHIECRLHQEACMPPPPPYEGYSQRERCDGARRRIGFVEFVTIAEMVRLGAMPGTPARVGI | not soluble
MRVALFITCLADHFYPKAGVAPVRLLRALGVKVDFPKGQTCCGQPAFNAGYWDEARPLAKRTLEVFEEAEYVVLPSGSCTSMVKNHYPELLPGNREALAMAEKTYELSQFLVRVLGVEKLGEGLKGRRVAYHHGCHALRELGVREEPLLLLQNAGAEVLPWEAWEECCGFGGLFSVKLPEVSLAMADRKLATLPKAEVLTSTDAGCLLHLAGRLGKKGENLRVAPLATLLWEAYAG | soluble
MTKKCPKCGNEFDAELTTCPTCGYSLTDTTVDKEEAETTSTNIDFETQENEEHEDQLNENIEWSELKDMSLGHVMELFGESPEEESNDDKKEESTEDNLIVSDSEDVSGLEASLQEGASEETHDSVEESIPATEETPTHSTEEKLATDEAVNLEETTEETTEETTTVEAETAEVSETVKSEEEALTEISGTEVISTTSEEEIFSQPPIEDQDVTPNETLQAYIQAHRADTEMSENPSEETAETQELENSGEAVLTQAETPTESISDSEEGLTSAASLEAPSDADATEGKVSDSGVIPPMNETGNAQPAPAPKKPSKKVVFVALAVVLLAGGSAWAYHDQTQKAAAQEAAALTKKTDTLKDELAAFYTTKEQVFIKPDMVTVSPEKLSKQVAEIKDSEEYSQLNKQIQTLKEKQQTIQQINQLFEAPIVNGNELKPAILAADQPISVKKLTGNDPFDQLMNQAIDQANQQYNQLQKAKKAVEVIYKDGKTTNQLNRDTYQAAKAEVDKVTSDKLKKELVKQVTTADQALTKVEEEQKRIAEEQAAAEQAKQAEEQAKQAAAAKKEDAKKEETAKTEANGYTAPNSDGVYTSPLYAPDAADIADSSNPAWTWAPGVKEKVLDTVIARGYVVPGGYSLEPAKIVNGEGYYNLYATNNQSKLLEGTTEKNVHMYLVTINAKTGWFKGNASRNAGQ | not soluble
MCMSSQSYFKSVMYALVTGGTRGIGRAITEALLKEGYNVAVLYHGSEDKAKELREKGVLTVRCDVGDRNQVKKAKEEISNHFPRLDVLVNNAGIWYLMPFEQFDEEKYERMLRVNLNGTIYVTYEFLSLLKKSSAASIINIASNAGIGTAAEGTTFYAITKAGIIILTRRLAFELGKYGIRVNAVAPGWIETDMTLGNKSDEEKEKLREIFRNKTVLHTTGKPEDIANIVVFLASEKARYITGQVIVADGGRIDNLTHSV | soluble
MSNRKLSPDKTQPIYAPNNAFLDECVRVEIINILPLKVLRPAVKESTKYHQILASIQDVGLVEPPAVTPAPGTSGQYFLLDGHLRIEVLKDLGELKVDCLVATDDDTYSYNKRTNRLSAVQSNKMIVRAMERGVSAERLGKALGLSPQTIRQRFRLLNGICAEVVALLGDTDCPANVFNLLRQMKPLRQIEAAELMIGNKNLSVLLAKALLAATPPDQLVMIKKPSQDHQVSAESMARLERELAALQMQIKTVEEDYGPDVLHLTVIKGYLTKLLANAAVVRWLARHQPEYLKEFQSIAELTELPWADNGPEDDLQSTTAEG | not soluble
MGSDKIHHHHHHKENNDFSSMQMKGVEQVSVKVDLDPAVERLSKAVQFRTISNQDRNDFDEKAFTDYHQFLEKAYPNVHKTLKREVLGSPRPFSLLYTWKGKDPSLPPALFYAHQDVVPVPSESRDQWAVDPFAGAVQDGYIWGRGVLDDKNQIHGILEAAEMKIKEGWQPSRTLYFVFGQDEEVGGPEGAKYIADVLEQRGIKRFAFVIDESAPLTPGIFPGIPDNTALIGIAQKGFVSLELAMNGIGGHSSQPPEESNIGILAKAITKLEAAQFPYRIHEAVRHQYRYMGPELSEDKQPMYAAVAFGKDGEITPLEQKFIDEMASQQVTRAMLHTTIAVTMFNAGIKDNVLPPSATAVVNFRPMPGDTPEVIIAHVKKAIGDDRITVRDISASTPATNVADPSSKSYQQLEKTIRQIYGNDLIVSPFFVIGGSDSKHFQARKFAPDVYTITGLQLESVKEFAGFHGVNERIRVDEYGRTIGFFYKLMDNLEEL | not soluble
MRGSHHHHHHGSAERMLATIMFTDIVGSTQHAAALGDDRWRDLLDNHDTIVCHEIQRFGGREVNTAGDGFVATFTSPSAAIACADDIVDAVAALGIEVRIGIHAGEVEVRDASHGTDVAGVAVHIGARVCALAGPSEVLVSSTVRDIVAGSRHRFAERGEQELKGVPGRWRLCVLMRDDATRTR | soluble
MSSDSDSDFGKEASKTPKRRITDCLFDSDDEVLESPGREELRKLLLSDYEDVGSVTIDTPKLKNRNVRLRGAGRPQKGGDDYKDYGRSEMEQFLRLVSDKPFLWHTKDSDFHRKKEKGMPAWAEIERTCNTFMGKGRTPGKTAAALFKKMATTYKSHLTRIQKAPSGSAVTPKKDLFCYAELMSFMDEDITHRAPTCSFIVGAGPDVDVLPTETSSSKKK | not soluble
TQEKRSYMEKLSDENGIISALAFDQRGALKRLMAQYQTQEPTIAQMEELKVLVAEELTPYASSMLLDPEYGLPAAKHLDKNAGLLLAYEKTGYDTTSTKRLPDCLVEWSAKRLKKQGADAVKFLLYYDVDGDEEVNQQKQAYIERIGSECKAEDIPFFLEILAYDETITDAASVEYAKVKPHKVLDAMKVFSDERFGIDVLKVEVPVNMKYVEGFGDGPIVHTQDQAANFFKQQDQATPLPYIYLSAGVSAKLFQDTLVFAKESGANFNGVLCGRATWAGSVKDYIEKGEAAARQWLRTEGFKNIDELNKVLKATATSWKE | not soluble
MSLDEIVGIGFKRADAIARNMGVHPHSKYRIHSGIKYMLNTFQGEGHTYAPGVKLIQRAEELLRVEEGQVEGAIQELALNQEIQLERIDDEIIVYSMPYYYAESNVCKKLISLAQVELDPIEMDIDEELQKIEQAEEMTLAKQQKEAIKEAIENGISVITGGPGTGKTTTINSLIKVFEKLELKMLLAAPTGRASKRMTEATGKESKTIHRLLELGFGDDREGMLFQRNEDNPLDCHVIIIDEVSMVDIILMNSLMKSIARGTRVVLVGDVDQLPSVGAGNVLRDIIDSKVVKTIRLTEIFRQAQESMIVVNAHRINQGLYPQLNEKQKDFYFMKRNAKEDVLATVVELVRDRLPKHYQFDALRDIQVLTPMKKGETGTLNLNKELQAALNPPNVSKAEKDLKEKIFREGDKVMQIKNNYTLKWRCLDPMAEEQKGEGVFNGDIGYVQSIDTEAEELVILFDDQKQVNYSFTQLDELELAYSVTIHKSQGSEFPVVVIPITWGPPMLLTRNLLYTAVTRARSLVVLVGVESYLKKMVDNNKIIERYSGLGRRLGKYFEEGHHHHHH | not soluble
MSDELSVKRHKSDPDESIEEIMPEIRPPLTRTHKIVRDESGKHNLLLILTGSIAVMKAPELISELYEKIGRDRILIKVVTTENAMKLCHIQKLEFDEIVYEDRDEWSMWRERGDKVLHIELRKWADSALIAPLDANTMAKIANGLCDNLVTSIIRAWDLSKPCYFAPAMNTHMWENPLTMQHRTVLKSQLKFKEICPIQKELICGDVGTGAMASIGTIVSLVAALVRDQQAVRIQCG | not soluble
MAHHHHHHMGTLEAQTQGPGSMVTAEAIDQRTFRRVLGQFCTGVTIITTVHEGNPVGFACQSFAALSLDPPLVLFCPTKVSRSWKAIEASGRFCVNILHEKQQHVSARFGSREPDKFAGIDWRPSDLGSPIIDGSLAHIDCTVHDVHDGGDHFVVFGKVHGLSEVPERKPRPLLFYRGEYTGIEPEKNTPAQWRDDLEAFLTATTADTWL | soluble
MSLIKIGVIADDFTGATDIASFLVENGLPTVQINGVPTGKMPEAIDALVISLKTRSCPVVEATQQSLAALSWLQQQGCKQIYFKYCSTFDSTAKGNIGPVTDALMDALDTPFTVFSPALPVNGRTVYQGYLFVMNQLLAESGMRHHPVNPMTDSYLPRLVEAQSTGRCGVVSAHVFEQGVDAVRQELARLQQEGYRYAVLDALTEHHLEIQGEALRDAPLVTGGSGLAIGLARQWAQENGNQARKAGRPLAGRGVVLSGSCSQMTNRQVAHYRQIAPAREVDVARCLSIETLAAYAHELAEWVLGQESVLAPLVFATASTDALAAIQQQYGAQKASQAVETLFSQLAARLAAEGVTRFIVAGGETSGVVTQSLGIKGFHIGPTISPACREGHHHHHH | not soluble
MGSDKIHHHHHHMKLRELLSIGDLKKGKILTKEIGLDNEVDSAMVLEAIDIENWSRKNQLILTSFYALHDLPEKELENFFVKMRRIGISGLILKTDRFIKMIPEWFIELCFNYEIPLIKITQDISYEKILFTIYEPLLNYQSHVLRTYYDVRQRFTKLERHYPTVETIMQEFYDIIKLPFALKMLDKHLEISDGDLPHDAIVLSREKLKNSEFTKNDYSLLTLYSHANPKKQLALEVSIFNSYSTNCLLLVYLQDEKVKETDLVIIENAIDVLQEKFNTENLLKKERYTRLNNLADAILQNTPQNPDELNSLLREVQMQELDSYQAIAFSTKDTNTQLMKERIIALLRTLRVKSIFFDQLNYSAVLFNFNESDGKITKLQLSRLLAELLEENDTLTVAVSSLKSREGIKELLIECLDILRFNETFYNGPIVTLADIGVFKNFIREDQLENLDELIPRALYQLAENNYDLFETLYSFFQNNRNYKQTSEAMFLHSKTIRYRLNKVEQLLDIDLANPLQLLNYEIATYIIKMRRRALEKQSNTR | not soluble
MSDHPGPGAVTPELFGVGGDWLAVTAGESGASVFRAADATRYAKCVPAADAAGLEAERDRIAWLSGQGVPGPRVLDWYAGDAGACLVTRAVPGVPADRVGADDLRTAWGAVADAVRRLHEVPVASCPFRRGLDSVVDAARDVVARGAVHPEFLPVEQRLVPPAELLARLTGELARRRDQEAADTVVCHGDLCLPNIVLHPETLEVSGFIDLGRLGAADRHADLALLLANARETWVDEERARFADAAFAERYGIAPDPERLRFYLHLDPLTWG | not soluble
DQLPGPVRVTVAGGGSARSAGESGFRRGGGRGARRGSDGGASDDDDDDGGGSGGGGGGRGFSTQGAGAKGGGSSGGSVQGIFHVKPYLEGRKCIDHGGEMVSRSAFERAGGSMMAKWYRSIKVLPEGVSLGKWLVSNGLP | not soluble
MSLSKKRAGAMKNYGAGDQFKATKALTFTILHNDMPTYPMKRDWLFWKEVTERTGVTLKPTSVPASDYDKKRSLLIGAGDAPLLIPKTYPGQETAFVSSGAILPVSEYVRLMPNFRAKVEKWGLEGDLDSIRQADGNYYVLPGLHEKVKSGYSLSFRTDVLKKHGLDLPTTWDQVYDVLKALKAAYPDVYPFSDRWGQPTPGGALLNYLGPAFGTKAGWSYANTAWDTKARKYVFTGATDEYRQMLEYLRKLVAEKLMDPESFTQSDDDAVRKLLSGKSFVISANPQELVQNYRYNLGKQVKGATIEMIPVPIGPTGEVIVGSRLENGLMVAGRAAEGDSFVAMMQFVDWLWYSDGGQEFAKYGVEGVTYTSSGAGRYKVADGISYMGSDPSAPKDLQKDYGFTNGEFAYGGSWALVSSSFSPDEKAFQDAMAGRKLLPVDPAHPLKADEQEQATLWDTPLKDHVTQNTLKFALGKRPMSEWDAYLAELKAKNMQRYIDLHNTAYERFKKEHEGHHHHHH | soluble
